Measured values: article PMC6764022 (ACS Nano, 2019)
Bridges are numbered along the chain shown (N, C = ends). Roman numbers before positions name the chains, in order. Where no end group is shown, it is not given here. [ ]: non-standard residue; d: D form. Lys(N3) = [N-]=[N+]=NCCCC[C@H](N)C(=O)O

How the values were obtained:
[1] = Sedimentation equilibrium analytical ultracentrifugation (AUC); type: physicochemical; details: PBS, 20 °C; for Oligomeric state (Table S3), reduced / MWAUC (Table S3), reduced: 10 fold excess of TCEP; for Oligomeric state (Table S3), reduced / MWAUC (Table S3), reduced / oligomeric state by AUC, in words / Oligomeric state (Table S3): 55 μM; for MWAUC (Table S3), reduced: 280 nm (235 nm for the KE peptides); for MWAUC (Table S3): 55 μM each, 44–60 krpm, single ideal species, 280 nm (235 nm for CC-Di-KE), performed once, 99% confidence limits in separate column; for Oligomeric state (Table S3): single run
[2] = CD spectra and thermal unfolding; type: physicochemical; details: 5 °C, 50 μM, neutral pH (PBS pH 7.4)
Protocol: Figure 1 Biophysical characterization of the coiled-coil heterodimer formed between charge-neutral peptides CC-Di-EK and CC-Di-KE. (a) CD spectra recorded at 5 °C and (b) thermal unfolding (filled symbols, solid line) and refolding (open symbols, dashed line) profiles, monitored through the CD signal at 222 nm, of the individual peptides CC-Di-EK (red, circles) and CC-Di-KE (blue, squares) and of an equimolar mixture of CC-Di-EK:KE (purple, triangles). The average of the spectra of the individual peptides is shown in black (no symbols). […] Representative data from a minimum of three replicates are shown. Conditions: each peptide 50 μM in PBS (pH 7.4), 1 mm path length quartz cuvette. […]
(§1) Exceptions were CC-Di-EK-Z and Z-CC-Di-KE, the masses of which were confirmed by infusing sample from an Advion Nanomate Triverser (Nanospray source) at 1.4 kV into a Waters Synapt G2S IMS Q -TOF mass spectrometer. Peptide purity was determined to be >95% using a JACSO HPLC system set up with an analytical reverse phase Phenomenex Kinete x C18 column (5  µM particle size; 100 Å pore size; 100 x 4.6 mm) running linear gradients of buffer B vs. buffer A.
(§2) Peptide Concentration determinations. Peptide concentrations were determined in H 2O by UV-vis absorption at 280 nm on a Nanodrop 2000 (Thermo Scientific) using the following extinction coefficients: […]

ssDNA tags = assay: CD test of interaction of peptides with ssDNA tags; type: binding; details: CD spectra (Figure S6a,b)
Text: Peptide modelling. Parametric models for all six combinations of CC-Di-EK and CC-Di-KE as hetero and homodimeric parallel and antiparallel coiled coils were generated using ISAMBARD (https://github.com/woolfson -group/isambard).1 These were optimized for BUDE Interaction Energy in ISAMBARD using a genetic algorithm which generated 30,000 models per combination over 3 0 generations with 1,000 models in each. To ensure that we generated useful models, we restricted geometric parameters to values consistent with coiled -coil dimers. For both the parallel and antiparallel […]
z shift = 0 ± 5 Å. Optimizations were repeated three times for each combination.
Peptide purification. […]
as §1, §2

[3] = biological target: the molecule itself; assay: counting of free and bound DNA origami nanostructures in electron micrographs (TEM); peptides displayed on DNA origamis A and B through oligonucleotide tags; gel-purified An and Bn mixed, total monomer concentrations 0.25-2.4 nM; background of random coincidences subtracted; Kd from the slope of a linear fit through the origin; additional systematic error of approximately 20%
[4] = biological target: the molecule itself; assay: AUC; sedimentation equilibrium, 55 µM of each peptide in PBS, 20 °C, with TCEP reducing agent (10-fold excess; for the pair 5-fold relative to total peptide), fits to a single ideal species
[5] = biological target: the molecule itself; assay: AUC; sedimentation equilibrium, 55 µM of each peptide in PBS pH 7.4, 20 °C, 44-60 krpm, fits to a single ideal species
CC-Di-KE = biological target: T1, CC-Di-KE (N-terminal acetylation (methods, said of the peptides in general)); assay: circular dichroism thermal unfolding, concentration dependence of TM; Kd for heterodimerization estimated from the concentration dependence of the TM of free peptides in solution; details: both partners purified
T1 chain: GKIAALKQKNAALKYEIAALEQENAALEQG

[6] = biological target: T2, B1: DNA origami B decorated with one β-CC-Di-KE (azidonorleucine (Z) at the N-terminus, joined to oligonucleotide tag β, which is hybridised to a handle of DNA origami B); assay: counting of free and bound DNA origami nanostructures in electron micrographs (TEM); peptides displayed on DNA origamis A and B through oligonucleotide tags; gel-purified An and Bn mixed, total monomer concentrations 0.25-2.4 nM; background of random coincidences subtracted; Kd from the slope of a linear fit through the origin; additional systematic error of approximately 20%; details: both partners purified
T2 chain: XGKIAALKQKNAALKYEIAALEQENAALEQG

[7] = biological target: the molecule itself; assay: AUC; sedimentation equilibrium of the disulfide-linked heterodimers, 55 µM in PBS, 20 °C, 24-39 krpm in 3 krpm steps (colour key of Figure S3 o, p), fits to a single ideal species

Ac-CGG EIAALEQ ENAALEQ KIAALKW KNAALKQ G-NH2 (Ac-CGGEIAALEQENAALEQKIAALKWKNAALKQG-NH2) [C-CC-Di-EK, N-terminally Cys-labelled CC-Di-EK]
Oligomeric state (Table S3), reduced [1]: 1.96 x monomer | MWAUC (Table S3), reduced [1]: 6683 Da | oligomeric state by AUC, in words [1]: exists as a dimer in solution even under reducing conditions

Ac-G EIAALEQ EIAALEQ KNAALKW KIAALKQ G-NH2 (Ac-GEIAALEQEIAALEQKNAALKWKIAALKQG-NH2) [CC-Di-EN4, 4-heptad coiled-coil peptide withone asparagine]
MWAUC (Table S3) [1]: 6079 Da | Oligomeric state (Table S3) [1]: 1.87 x monomer

Ac-G EIAALEQ KNAALKW KIAALKQ G-NH2 (Ac-GEIAALEQKNAALKWKIAALKQG-NH2) [CC-Di-EN3, 3-heptad coiled-coil peptide]
MWAUC (Table S3) [1]: 2369 Da | Oligomeric state (Table S3) [1]: 0.95 x monomer

Ac-G LEQ EIAALEQ KNAALKW KIAALKQ G-NH2 [CC-Di-EN3.5, 3.5-heptad coiled-coil peptide]
MWAUC (Table S3) [1]: 2982 Da | Oligomeric state (Table S3) [1]: 1.04 x monomer

Ac-G EIAALEQ ENAALEQ KIAALKW KNAALKQ GC-NH2 | Ac-G KIAALKQ KNAALKY EIAALEQ ENAALEQ GC-NH2 (disulfide) [CC-Di-EK-C | CC-Di-KE-C, obligate heterodimer linked by disulfide via both C-termini]
Oligomeric state (Table S3), disulfide-linked heterodimer ([1]; 24–39 krpm (Figure S3 o, p)): 1.00 x obligate dimer | MWAUC (Table S3), disulfide-linked heterodimer ([1]; 24–39 krpm (Figure S3 o, p), 280 nm): 6695 Da

Ac-G KIAALKQ KNAALKY EIAALEQ ENAALEQ GC-NH2 (Ac-GKIAALKQKNAALKYEIAALEQENAALEQGC-NH2) [CC-Di-KE-C, CC-Di-KE with C-terminal Cys]
Oligomeric state (Table S3), reduced [1]: 0.92 x monomer | MWAUC (Table S3), reduced [1]: 3062 Da

Ac-CGG KIAALKQ KNAALKY EIAALEQ ENAALEQ G-NH2 (Ac-CGGKIAALKQKNAALKYEIAALEQENAALEQG-NH2) [C-CC-Di-KE, CC-Di-KE with N-terminal Cys]
Oligomeric state (Table S3), reduced [1]: 0.92 x monomer | MWAUC (Table S3), reduced [1]: 3126 Da

Ac-G EIAALEQ ENAALEQ KIAALKW KNAALKQ GC-NH2 (Ac-GEIAALEQENAALEQKIAALKWKNAALKQGC-NH2) [CC-Di-EK-C, CC-Di-EK with C-terminal Cys]
Oligomeric state (Table S3), reduced [1]: 1.04 x monomer | MWAUC (Table S3), reduced [1]: 3474 Da

Ac-G KIAALKQ KNAALKY EIAALEQ ENAALEQ G-NH2 (Ac-GKIAALKQKNAALKYEIAALEQENAALEQG-NH2) [CC-Di-KE, charge-neutral coiled-coil peptide, partner of CC-Di-EK]
folding state by CD [2]: either largely or fully unfolded | interaction with ssDNA tags (ssDNA tags): no interaction | MWAUC (Table S3) [1]: 3096 Da | Oligomeric state (Table S3) [1]: 0.96 x monomer | oligomeric state by AUC, in words [1]: monomers

Ac-G EIAALEQ ENAALEQ KIAALKW KNAALKQ G-NH2 (Ac-GEIAALEQENAALEQKIAALKWKNAALKQG-NH2) [CC-Di-EK, charge-neutral coiled-coil peptide, four heptads, asparagines at two a sites]
folding state by CD [2]: either largely or fully unfolded | interaction with ssDNA tags (ssDNA tags): no interaction | MWAUC (Table S3) [1]: 3274 Da | Oligomeric state (Table S3) [1]: 1.00 x monomer | oligomeric state by AUC, in words [1]: monomers

[Lys(N3)]GKIAALKQKNAALKYEIAALEQENAALEQG-NH2 (other, also: tag β hybridised to handle of DNA origami B, three copies per origami) [B3: DNA origami B decorated with three β-CC-Di-KE]
Kd [3]: 20 ± 3 nM

Ac-CGGEIAALEQENAALEQKIAALKWKNAALKQG-NH2 [C-CC-Di-EK]
stoichiometry N [4]: 1.96 x monomer

Ac-GEIAALEQEIAALEQKNAALKWKIAALKQG-NH2 [CC-Di-EN4]
stoichiometry N [5]: 1.87 x monomer

Ac-GEIAALEQENAALEQKIAALKWKNAALKQG-NH2 [CC-Di-EK]
Kd (CC-Di-KE): 102 ± 26 nM

GEIAALEQENAALEQKIAALKWKNAALKQG[Lys(N3)]-NH2 (other, also: tag α hybridised to handle of DNA origami A, one copy per origami) [A1: DNA origami A decorated with one CC-Di-EK-α]
Kd [6]: 130 ± 20 nM

B1: CC-Di-EK-C disulfide-linked to C-CC-Di-KE (opposite ends) (complex)
peptide 1: Ac-GEIAALEQENAALEQKIAALKWKNAALKQGC-NH2
peptide 2: Ac-CGGKIAALKQKNAALKYEIAALEQENAALEQG-NH2
modifications: disulfide I:31-II:1
stoichiometry N [7]: 2.6 x obligate dimer
